Columns and labels:
[1] = target: T1, Recombinant human HER2 (human, UniProt P04626 23-652); experiment: SPR, post-SEC; ratio to WT v10013
T1 construct: extracellular domain; analyte of the SPR assays; also called HER2 ECD; ECD2 of HER2
Procedure: (§1) The affinity towards HER2 ECD of the samples was measured by SPR on a Biacore T200 as follows. Between 2000 and 4000 RU of anti-human Fc injected at concentration between 5 and 10 μg/ml was immobilized on a CM5 chip using standard amine coupling. Antigen-binding constructs were captured on the anti-human Fc (injected at concentration at 0.51 microg/mL in PBST, 1 min at 10 microl/min) at response levels ranging from 120-270 RU. […] HER2 dilutions were analyzed in duplicates. Sensograms were fit globally to a 1: 1 Langmuir binding model, using the software provided with the Biacore T200. All experiments were conducted at 25° C.
(§2) The affinity of antigen-binding constructs in OA format was determined by SPR following protein A purification. […] Antigen-binding constructs in FSA format were purified by protein A affinity and SEC prior to assessment of affinity by SPR.

[2] = target: T1, Recombinant human HER2; experiment: SPR, variant captured on anti-human Fc, HER2 flowed, 25 C, pre-SEC;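 further: HER2 extracellular domain binding on Biacore T200, CM5 chip with amine-coupled anti-human Fc, duplicate antigen dilutions, global 1:1 Langmuir fit, measured after protein A purification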
Procedure: as §1, §2

[3] = target: T1, Recombinant human HER2; experiment: SPR, pre-SEC; ratio to WT v10013;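 further: SPR on Biacore T200 at 25 °C, constructs captured via anti-human Fc on CM5 chip, HER2 ECD as analyte, 1:1 Langmuir global fit, after protein A purification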
[4] = target: T1, Recombinant human HER2; experiment: SPR, variant captured on anti-human Fc, HER2 flowed, 25 C, post-SEC
Procedure: as §1, §2

Binder	Ka, mut/Ka, WT [1]	Kd [2] [nM]	Ka, mut/Ka, WT [3]	Kd [4] [nM]
variant 12497 (antibody, human IgG1, kappa, OA pertuzumab variant, HC Q61R (Kabat); also called v12497) heavy: EVQLVESGGGLVQPGGSLRLSCAASGFTFTDYTMDWVRQAPGKGLEWVADVNPNSGGSIYNRRFKGRFTLSVDRSKNTLYLQMNSLRAEDTAVYYCARNLGPSFYFDYWGQGTLVTVSSASTKGPSVFPLAPSSKSTSGGTAALGCLVKDYFPEPVTVSWNSGALTSGVHTFPAVLQSSGLYSLSSVVTVPSSSLGTQTYICNVNHKPSNTKVDKKVEPKSCDKTHTCPPCPAPELLGGPSVFLFPPKPKDTLMISRTPEVTCVVVDVSHEDPEVKFNWYVDGVEVHNAKTKPREEQYNSTYRVVSVLTVLHQDWLNGKEYKCKVSNKALPAPIEKTISKAKGQPREPQVYVYPPSRDELTKNQVSLTCLVKGFYPSDIAVEWESNGQPENNYKTTPPVLDSDGSFALVSKLTVDKSRWQQGNVFSCSVMHEALHNHYTQKSLSLSPG light: not shown not shown	1.6	14	1.4	13
variant 12502 (antibody, human IgG1, kappa, OA pertuzumab variant, HC S74W (Kabat); also called v12502) heavy: EVQLVESGGGLVQPGGSLRLSCAASGFTFTDYTMDWVRQAPGKGLEWVADVNPNSGGSIYNQRFKGRFTLSVDRWKNTLYLQMNSLRAEDTAVYYCARNLGPSFYFDYWGQGTLVTVSSASTKGPSVFPLAPSSKSTSGGTAALGCLVKDYFPEPVTVSWNSGALTSGVHTFPAVLQSSGLYSLSSVVTVPSSSLGTQTYICNVNHKPSNTKVDKKVEPKSCDKTHTCPPCPAPELLGGPSVFLFPPKPKDTLMISRTPEVTCVVVDVSHEDPEVKFNWYVDGVEVHNAKTKPREEQYNSTYRVVSVLTVLHQDWLNGKEYKCKVSNKALPAPIEKTISKAKGQPREPQVYVYPPSRDELTKNQVSLTCLVKGFYPSDIAVEWESNGQPENNYKTTPPVLDSDGSFALVSKLTVDKSRWQQGNVFSCSVMHEALHNHYTQKSLSLSPG light: not shown not shown	5.3	2.4	8.2	3.9
variant 12520 (antibody, human IgG1, kappa, also called v12520) heavy: EVQLVESGGGLVQPGGSLRLSCAASGFTFRDYTMDWVRQAPGKGLEWVADVNPNSGYSIYNQRFKGRFTLSVDRSKNTLYLQMNSLRAEDTAVYYCARNLGPSFYFDYWGQGTLVTVSSASTKGPSVFPLAPSSKSTSGGTAALGCLVKDYFPEPVTVSWNSGALTSGVHTFPAVLQSSGLYSLSSVVTVPSSSLGTQTYICNVNHKPSNTKVDKKVEPKSCDKTHTCPPCPAPELLGGPSVFLFPPKPKDTLMISRTPEVTCVVVDVSHEDPEVKFNWYVDGVEVHNAKTKPREEQYNSTYRVVSVLTVLHQDWLNGKEYKCKVSNKALPAPIEKTISKAKGQPREPQVYVYPPSRDELTKNQVSLTCLVKGFYPSDIAVEWESNGQPENNYKTTPPVLDSDGSFALVSKLTVDKSRWQQGNVFSCSVMHEALHNHYTQKSLSLSPG light: not shown not shown	3.1	5.4	3.6	6.6
variant 12506 (antibody, human IgG1, kappa, OA pertuzumab variant, HC K75W (Kabat); also called v12506) heavy: EVQLVESGGGLVQPGGSLRLSCAASGFTFTDYTMDWVRQAPGKGLEWVADVNPNSGGSIYNQRFKGRFTLSVDRSWNTLYLQMNSLRAEDTAVYYCARNLGPSFYFDYWGQGTLVTVSSASTKGPSVFPLAPSSKSTSGGTAALGCLVKDYFPEPVTVSWNSGALTSGVHTFPAVLQSSGLYSLSSVVTVPSSSLGTQTYICNVNHKPSNTKVDKKVEPKSCDKTHTCPPCPAPELLGGPSVFLFPPKPKDTLMISRTPEVTCVVVDVSHEDPEVKFNWYVDGVEVHNAKTKPREEQYNSTYRVVSVLTVLHQDWLNGKEYKCKVSNKALPAPIEKTISKAKGQPREPQVYVYPPSRDELTKNQVSLTCLVKGFYPSDIAVEWESNGQPENNYKTTPPVLDSDGSFALVSKLTVDKSRWQQGNVFSCSVMHEALHNHYTQKSLSLSPG light: not shown not shown	30.6	0.64	30.6	0.68
variant 12503 (antibody, human IgG1, kappa, OA pertuzumab variant, HC S74H (Kabat); also called v12503) heavy: EVQLVESGGGLVQPGGSLRLSCAASGFTFTDYTMDWVRQAPGKGLEWVADVNPNSGGSIYNQRFKGRFTLSVDRHKNTLYLQMNSLRAEDTAVYYCARNLGPSFYFDYWGQGTLVTVSSASTKGPSVFPLAPSSKSTSGGTAALGCLVKDYFPEPVTVSWNSGALTSGVHTFPAVLQSSGLYSLSSVVTVPSSSLGTQTYICNVNHKPSNTKVDKKVEPKSCDKTHTCPPCPAPELLGGPSVFLFPPKPKDTLMISRTPEVTCVVVDVSHEDPEVKFNWYVDGVEVHNAKTKPREEQYNSTYRVVSVLTVLHQDWLNGKEYKCKVSNKALPAPIEKTISKAKGQPREPQVYVYPPSRDELTKNQVSLTCLVKGFYPSDIAVEWESNGQPENNYKTTPPVLDSDGSFALVSKLTVDKSRWQQGNVFSCSVMHEALHNHYTQKSLSLSPG light: not shown not shown	0.8	15	1.3	25
variant 12504 (antibody, human IgG1, kappa, OA pertuzumab variant, HC S74A (Kabat); also called v12504) heavy: EVQLVESGGGLVQPGGSLRLSCAASGFTFTDYTMDWVRQAPGKGLEWVADVNPNSGGSIYNQRFKGRFTLSVDRAKNTLYLQMNSLRAEDTAVYYCARNLGPSFYFDYWGQGTLVTVSSASTKGPSVFPLAPSSKSTSGGTAALGCLVKDYFPEPVTVSWNSGALTSGVHTFPAVLQSSGLYSLSSVVTVPSSSLGTQTYICNVNHKPSNTKVDKKVEPKSCDKTHTCPPCPAPELLGGPSVFLFPPKPKDTLMISRTPEVTCVVVDVSHEDPEVKFNWYVDGVEVHNAKTKPREEQYNSTYRVVSVLTVLHQDWLNGKEYKCKVSNKALPAPIEKTISKAKGQPREPQVYVYPPSRDELTKNQVSLTCLVKGFYPSDIAVEWESNGQPENNYKTTPPVLDSDGSFALVSKLTVDKSRWQQGNVFSCSVMHEALHNHYTQKSLSLSPG light: not shown not shown	0.8	18	1.1	27
variant 12505 (antibody, human IgG1, kappa, OA pertuzumab variant, HC K75E (Kabat); also called v12505) heavy: EVQLVESGGGLVQPGGSLRLSCAASGFTFTDYTMDWVRQAPGKGLEWVADVNPNSGGSIYNQRFKGRFTLSVDRSENTLYLQMNSLRAEDTAVYYCARNLGPSFYFDYWGQGTLVTVSSASTKGPSVFPLAPSSKSTSGGTAALGCLVKDYFPEPVTVSWNSGALTSGVHTFPAVLQSSGLYSLSSVVTVPSSSLGTQTYICNVNHKPSNTKVDKKVEPKSCDKTHTCPPCPAPELLGGPSVFLFPPKPKDTLMISRTPEVTCVVVDVSHEDPEVKFNWYVDGVEVHNAKTKPREEQYNSTYRVVSVLTVLHQDWLNGKEYKCKVSNKALPAPIEKTISKAKGQPREPQVYVYPPSRDELTKNQVSLTCLVKGFYPSDIAVEWESNGQPENNYKTTPPVLDSDGSFALVSKLTVDKSRWQQGNVFSCSVMHEALHNHYTQKSLSLSPG light: not shown not shown	3.7	4.6	4.2	5.7
variant 12514 (antibody, human IgG1, kappa, OA pertuzumab variant, HC S99W (Kabat); also called v12514) heavy: EVQLVESGGGLVQPGGSLRLSCAASGFTFTDYTMDWVRQAPGKGLEWVADVNPNSGGSIYNQRFKGRFTLSVDRSKNTLYLQMNSLRAEDTAVYYCARNLGPWFYFDYWGQGTLVTVSSASTKGPSVFPLAPSSKSTSGGTAALGCLVKDYFPEPVTVSWNSGALTSGVHTFPAVLQSSGLYSLSSVVTVPSSSLGTQTYICNVNHKPSNTKVDKKVEPKSCDKTHTCPPCPAPELLGGPSVFLFPPKPKDTLMISRTPEVTCVVVDVSHEDPEVKFNWYVDGVEVHNAKTKPREEQYNSTYRVVSVLTVLHQDWLNGKEYKCKVSNKALPAPIEKTISKAKGQPREPQVYVYPPSRDELTKNQVSLTCLVKGFYPSDIAVEWESNGQPENNYKTTPPVLDSDGSFALVSKLTVDKSRWQQGNVFSCSVMHEALHNHYTQKSLSLSPG light: not shown not shown	4.5	3.4	5.8	4.6
